Assay results from the supplement of paper PMC6757056.
± gives the standard deviation of the averaged measurements.

B1: library; a variant is named by its letters at N, in order (parent)
chain: GCUGUCACCGGUGCUUGGUACGUUAUAUUCAGCCGGUCUGAUGAGUCUNNNNNNAGACGAAACAGC

Experiments:
[1] = variants of: B1; assay: FACS-Seq fitted mean relative fluorescence mCherry/BFP without ligand (log10 relative fluorescence); HEK293T overexpressing SLC46A1; higher = higher reporter protein expression; conditions: without (6R,S)-folinic acid; ligand present: no
Description: (§1)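 Hammerhead (sTRSV) ribozyme switch libraries with a ligand aptamer grafted on stem I and a randomized N4-6 loop II, cloned into the 3' UTR of mCherry and transiently transfected into HEK293T cells; RNA-Seq 72 h post transfection with ligand added 1 h before transfection; RNA read count / plasmid DNA read count normalized to the non-cleaving sTRSVctl (x100), log10; sequences with >100 DNA reads. FACS-Seq: lentiviral library sorted into 6 bins after 48 h ligand, log-normal fit mean of mCherry/BFP scaled to controls. Printed sequences are partial switch sequences.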

[2] = variants of: B1; assay: normalized RNA/DNA level without ligand (relative to sTRSVctl = 100) (log10 (% of sTRSVctl)); HEK293T overexpressing SLC46A1; higher = less ribozyme self-cleavage, higher mRNA level; conditions: without (6R,S)-folinic acid; ligand present: no
Description: as §1

[3] = variants of: B1; assay: FACS-Seq fitted mean relative fluorescence mCherry/BFP with ligand (log10 relative fluorescence); HEK293T overexpressing SLC46A1; ligand concentration (+) FACS-Seq: 6 mM; higher = higher reporter protein expression; conditions: with (6R,S)-folinic acid; ligand present: yes
Description: as §1

[4] = variants of: B1; assay: normalized RNA/DNA level with ligand (relative to sTRSVctl = 100) (log10 (% of sTRSVctl)); HEK293T overexpressing SLC46A1; ligand concentration (+) RNA-Seq: 6 mM; higher = less ribozyme self-cleavage, higher mRNA level; conditions: with (6R,S)-folinic acid; ligand present: yes
Description: as §1

Row | Variant | FACS-Seq fitted mean (log10) [1] | normalized RNA/DNA level without ligand (log10) [2] | FACS-Seq fitted mean (log10) [3] | normalized RNA/DNA level with ligand (log10) [4]
1 | AAGAGA | 0.0158 ± 0.096 | 1.929 ± 0.0075 | 0.157 ± 0.024 | 2.03 ± 0.049
2 | AACUCG | 0.22 ± 0.034 | 1.998 ± 0.014 | 0.302 ± 0.52 | 1.99 ± 0.026
3 | AACGUA | 0.196 ± 0.079 | 1.9883 ± 0.00019 | 0.207 ± 0.071 | 2.02 ± 0.026
4 | AACGUG | 0.4305 ± 0.0017 | 1.874 ± 0.0049 | 0.715 ± 0.2 | 1.98 ± 0.029
5 | AACGUU | 0.445 ± 0.028 | 1.991 ± 0.012 | 0.286 ± 0.094 | 1.98 ± 0.038
6 | CACAUA | 0.25 ± 0.021 | 1.978 ± 0.0043 | 0.219 ± 0.3 | 2.02 ± 0.035
7 | UAGAAU | 0.421 ± 0.089 | 1.921 ± 0.016 | 0.615 ± 0.02 | 2 ± 0.041
8 | UAGAAA | 0.332 ± 0.024 | 1.9239 ± 0.0006 | 0.254 ± 0.35 | 2.01 ± 0.023
9 | UAGAAG | 0.056 ± 0.02 | 1.654 ± 0.0022 | 0.456 ± 0.0016 | 1.963 ± 0.019
10 | CACCAU | 0.138 ± 0.12 | 1.9842 ± 0.00094 | 0.347 ± 0.13 | 2 ± 0.011
11 | GAGGAU | 0.372 ± 0.013 | 1.963 ± 0.0066 | 0.0226 ± 0.65 | 2.02 ± 0.033
12 | GAGCGA | 0.146 ± 0.064 | 1.997 ± 0.0086 | 0.145 ± 0.15 | 2.035 ± 0.011
13 | AACUUG | 0.321 ± 0.0087 | 1.94 ± 0.0095 | 0.658 ± 0.031 | 1.996 ± 0.0088
14 | AACUUA | 0.0993 ± 0.1 | 1.96 ± 0.032 | 0.0419 ± 0.12 | 1.98 ± 0.033
15 | CACGUA | 0.476 ± 0.1 | 1.989 ± 0.019 | 0.649 ± 0.35 | 2.01 ± 0.025
16 | UACCGC | 0.235 ± 0.05 | 1.988 ± 0.017 | 0.503 ± 0.22 | 1.99 ± 0.066
17 | UACCGA | 0.3629 ± 0.0013 | 1.9669 ± 0.00083 | 0.4406 ± 0.0022 | 2.04 ± 0.048
18 | UACCGG | 0.355 ± 0.059 | 1.982 ± 0.019 | 0.676 ± 0.1 | 2.004 ± 0.0069

Row | Variant | FACS-Seq fitted mean (log10) [1] | normalized RNA/DNA level without ligand (log10) [2] | FACS-Seq fitted mean (log10) [3] | normalized RNA/DNA level with ligand (log10) [4]
19 | UACCGU | 0.352 ± 0.017 | 1.989 ± 0.0026 | 0.431 ± 0.11 | 2.02 ± 0.048
20 | GAGCCU | 0.306 ± 0.041 | 2.076 ± 0.012 | 0.5133 ± 0.00087 | 2.062 ± 0.0057
21 | GAGCCA | 0.191 ± 0.0078 | 2.023 ± 0.02 | 0.281 ± 0.24 | 2.02 ± 0.047
22 | GAGCCG | 0.537 ± 0.069 | 2.047 ± 0.0093 | 0.419 ± 0.15 | 2.03 ± 0.05
23 | AACGAA | 0.105 ± 0.2 | 1.9508 ± 0.00076 | 0.0527 ± 0.083 | 1.99 ± 0.045
24 | AACGAG | 0.367 ± 0.0092 | 1.82 ± 0.032 | 0.501 ± 0.065 | 1.984 ± 0.01
25 | GACCCU | 0.102 ± 0.065 | 2.065 ± 0.0032 | -0.257 ± 0.21 | 2.04 ± 0.035
26 | GACUUG | 0.321 ± 0.035 | 1.956 ± 0.018 | 0.389 ± 0.13 | 1.99 ± 0.039
27 | UACUUG | 0.275 ± 0.057 | 1.78 ± 0.022 | 0.607 ± 0.16 | 1.98 ± 0.045
28 | UAGACU | 0.606 ± 0.02 | 2.0068 ± 0.00026 | 0.559 ± 0.038 | 1.98 ± 0.051
29 | UAGACA | 0.386 ± 0.0059 | 1.967 ± 0.0049 | 0.455 ± 0.17 | 2 ± 0.029
30 | UAGACG | 0.218 ± 0.052 | 1.754 ± 0.0068 | 0.17 ± 0.055 | 1.97 ± 0.029
31 | AACACG | 0.361 ± 0.13 | 1.938 ± 0.0019 | 0.436 ± 0.18 | 2 ± 0.045
32 | GAGAAA | 0.129 ± 0.016 | 1.958 ± 0.011 | 0.0474 ± 0.047 | 1.996 ± 0.01
33 | GAGAAG | 0.0112 ± 0.083 | 1.905 ± 0.0077 | 0.219 ± 0.32 | 2.02 ± 0.029
34 | GAGAAC | 0.435 ± 0.033 | 1.964 ± 0.0051 | 0.598 ± 0.32 | 2.02 ± 0.045
35 | CAGCAU | 0.411 ± 0.13 | 1.96 ± 0.014 | 0.546 ± 0.21 | 2.01 ± 0.027
36 | UAGCCU | 0.641 ± 0.044 | 2.02 ± 0.045 | 0.19 ± 0.0051 | 2.04 ± 0.037
